B1: PRT-194 (enzyme)
chain: MANQEIRYSEVTPYHVTSVWTKGVTPPDHDFANFTQGEDVFHAPYVANQGWYDITKTFNGKDDLLCGAATAGNMLHWWFDQNKDQIKRYLEEHPEKQKINFNGEQMFDVKEAIDTKNHQLDSKLFEYFKEKAFPYLSTKHLGVFPDHVIDMFINGYRLSLTNHGPTPVKEGSKDPRGGIFDAVFTRGDQSKLLTSRHDFKEKNLKEISDLIKKELTEGKALGLSHTYANVRHSINHVINLWGADFDSNGNLKAIYVTDSDDKKLTISNASIGMKKYFVGVNSAGKVAISAKEIKEDNIGAQVLGLFTLSTGQDSWNQTN
B2: PRT-195 (enzyme)
chain: MANQEIRYSEVTPYHVTSVWTKGVTPPDHDFRKIVDGEDVFHAPYVANQGWYDITKTFNGKDDLLCGAATAGNMLHWWFDQNKDQIKRYLEEHPEKQKINFNGEQMFDVKEAIDTKNHQLDSKLFEYFKEKAFPYLSTKHLGVFPDHVIDMFINGYRLSLTNHGPTPVKEGSKDPRGGIFDAVFTRGDQSKLLTSRHDFKEKNLKEISDLIKKELTEGKALGLSHTYANVRHSINHVINLWGADFDSNGNLKAIYVTDSDDKKLTIGDERIGMKKYFVGVNSAGKVAISAKEIKEDNIGAQVLGLFTLSTGQDSWNQTN
B3: PRT-196 (enzyme)
chain: MEVVEVWPYGQNPNGKTEILSQTEDSESLQRLRDIEDFQAEKKMQNVVYTKWLDGVDVKDHDFRKIVDGNIAYYATPLLNGRGFYDINKDFNRDSDKCAAAVAANMFHYWLDINRDNVDRFLRQNPEKHGIIELPDGQLKLSDFLNTYESDHGYRDKSKLFDFISNNFNGPVWTDKLLDNYINGYAYNYKYGRTIEDPTKNTSKINFFKEVFNEKILTNNHSIRNQNEFSVLLSEALYTGKAIGLSYGPAGLRHSLGHIISVWGADLDADGNVVAIYVTDSDDKKLTIGDERVGLKRYKISTDDENRLRLTAYEETHNTGGQIRGLWTLDTGKYAWADYFDKTEQTGTDQAEQLEHHHHHH
B4: PRT-197 (enzyme)
chain: MEVVEVWPYGQNPNGKTEILSQTEDSESLQRLRDIEDFQAEKKMQNVVYTKWLDGVDVKDHDFRKIVDGNIAYYATPLLNGRGFYDINKDFNRDSDKCAAAVAANMFHYWLDINRDNVDRFLRQNPEKHGIIELPDGQLKLSDFLNTYESDHGYRDKSKLFDFISNNFNGPVWTDKLLDNYINGYAYNYKYGRTIEDPTKNTSKINFFKEVFNEKILTNNHSIRNQNEFSDLLSEALYTGKAIGLSYGPAGLRHSLGHIISVWGADLDADGNVVAIYVTDSDDKKLTIGDERVGLKRYKISTDDENRARLTAYEETDNTGGQIRGLYTLDTGKQAWADYFDKTEQTGTDQAEQLEHHHHHH
B5: PRT-198 (enzyme)
chain: MEVVEVWPYGQNPNGKTEILSQTEDSESLQRLRDIEDFQAEKKKQGVVYTKWLDGVDVKDHDFRKIVDGNIAYYATPLLNGRGFYDINKDFNRDSDKCAAAVAANMFHYWLDINRDNVDRFLRQNPEKHGIIELPDGQLKLSDFLNTYESDHGYRDKSKLFDFISNNFNGPVWTDKLLDNYINGYAYNYKYGRTIEDPTKNTSKINFFKEVFNEKILTNNHSIRNQNEFSDLLSEALYTGKAIGLSYGPAGLRHSLGHIISVWGADLDADGNVVAIYVTDSDDKKLTIGDERVGLKRYKISTDDENRLRLTAYEETHNTGGQIRGLYTLDTGKQAWADYFDKTEQTGTDQAEQLEHHHHHH
B6: PRT-199 (enzyme)
chain: MEVVEVWPYGQNPNGKTEILSQTEDSESLQRLRDIEDFQAEKKKQNVVYTKWLDGVDVKDHDFRKIVDGNIAYYATPLLNGRGFYDINKDFNRDSDKCAAAVAANMFHYWLDRNRDNVDRFLRQNPEKHGIIELPDGQLKLSDFLNTYESDDGYRDKSKLFDFISNNFNGPVWTDKLLDNYINGYAYNYKYGRTIEDPTKNTSKINFFKEVFNEKILTNNHSIRNQNEFSVLLSEALYTGKAIGLSYGPAGLRHSLGHIISVWGADLDADGNVVAIYVTDSDDKKLTIGDERVGLKRYKISTDDEGRLRLTAYEETHNTGGQIRGLWTLDTGKQAWADYFDKTEQTGTDQAEQLEHHHHHH
B7: PRT-200 (enzyme)
chain: MEVVEVWPYGQNPNGKTEILSQTEDSESLQRLRDIEDFQAEKKMQNVVYTKWLDGVDVKDHDFRKIVDGNIAYYATPLLNGRGFYDINKDFNRDSDKCAAAVAANMFHYWLDINRDNVDRFLRQNPEKHGIIELPDGQLKLSDFLNTYESDHGYRDKSKLFDFISNNFNGPVWTDKLLDNYINGYAYNYKYGRTIEDPTKNTSKINFFKEVFNEKILTNNHSIRNQNEFSDLLSEALYTGKAIGLSYGPAGLRHSLGHIISVWGADLDADGNVVAIYVTDSDDKKLTIGDERVGLKRYKISTDDENRARLTAYEETDNTGGQIRGLWTLDTGKQAWADYFDKTEQTGTDQAEQLEHHHHHH
B8: PRT-201 (enzyme)
chain: MEVVEVWPYGQNPNGKTEILSQTEDSESLQRLRDIEDFQAEKKKQNVVYTKWLDGVDVKDHDFRKIKDGNIEYYATPLLNGRGFYDINKDFNRDSDKCAAAVAANMFHYWLDRNRDNVDRFLRQNPEKHGIIELPDGQLKLSDFLNTYESDDGYRDKSKLFDFISNNFNGPVWTDKLLDNYINGYAYNYKYGRTIEDPTKNTSKINFFKEVFNEKILTNNHSIRNQNEFSVLLSEALYTGKAIGLSYGPAGLRHSLGHIISVWGADLDADGNVVAIYVTDSDDKKLTIGDERVGLKRYKISTDDEGRARLTAYEETHNTGGQIRGLYTLDTGKQAWADYFDKTEQTGTDQAEQLEHHHHHH
B9: PRT-202 (enzyme)
chain: MEVVEVWPYGQNPNGKTEILSQTEDSESLQRLRDIEDFQAEKKKQNVVYTKWLDGVDVKDHDFRKIVDGNIAYYATPLLNGRGFYDINKDFNRDSDKCAAAVAANMFHYWLDINRDNVDRFLRQNPEKHGIIELPDGQLKLSDFLNTYESDYGYRDKSKLFDFISNNFNGPVWTDKLLDNYINGYAYNYKYGRTIEDPTKNTSKINFFKKVFNEKILTNIHSIRNQNEFSDLLSEALYTGKAIGLSYGPAGLRHSLGHIISVWGADLDADGNVVAIYVTDSDDKKLTIGDERVGLKRYKISTDDEGRLRLTAYEETDNTGGEIRGLYTLDTGKQAWADYFDKTEQTGTDQAEQLEHHHHHH
B10: PRT-203 (enzyme)
chain: MEVVEVWPYGQNPNGKTEILSQTEDSESLQRLRDIEDFQAEKKKQNVVYTKWLDGVDVKDHDFRKIKDGNIEYYATPLLNGRGFYDINKDFNRDSDKCAAAVAANMFHYWLDRNRDNVDRFLRQNPEKHGIIELPDGQLKLSDFLNTYESDDGYRDKSKLFDFISNNFNGPVWTDKLLDNYINGYAYNYKYGRTIEDPTKNTSKINFFKEVFNEKILTNNHSIRNQNEFSVLLSEALYTGKAIGLSYGPAGLRHSLGHIISVWGADLDADGNVVAIYVTDSDDKKLTIGDERVGLKRYKISTDDEGRARLTAYEETHNTGGQIRGLWTLDTGKQAWADYFDKTEQTGTDQAEQLEHHHHHH
B11: PRT-204 (enzyme)
chain: MEVVEVWPYGQNPNGKTEILSQTEDSESLQRLRDIEDFQAEKKMQNVVYTKWLDGVTVKDHDFRKIVDGNIAYYATPLLNGRGFYDINKDFNRDSDKCAAAVAANMFHYWLDRNRDNVDRFLSQNPEKHGIIELPDGQLKLSDFLNTYESDNGYRDKSKLFDFISNNFNGPVWTDKLLDNYINGYAYNYKYGRTIEDPTKNTSKINFFKEVFNEKILTNIHSIRNQNEFSDLLSEALYTGKAIGLSYGPAGLRHSLGHIISVWGADLDADGNVVAIYVTDSDDKKLTIGDERVGLKRYKISTDDEGRARLTAYEETDNTGGQIRGLETLDTGKYAWADYFDKTEQTGTDQAEQLEHHHHHH
B12: PRT-205 (enzyme)
chain: MEVVEVWPYGQNPNGKTEILSQTEDSESLQRLRDIEDFQAEKKKEGVVYTKWLDGVDVDDHDFRKIVDGNIAYYATPLLNGRGFYDINKDFNRDSDKCAAAVAANMFHYWLDRNRDNVDRFLKQNPEKHGIIELPDGQLKLSDFLNTYESDNGYRDKSKLFDFISNNFNGPVWTDKLLDNYINGYAYNYKYGRTIEDPTKNTSKINFFKEVFNEKILTNNHSIRNYNTFSDLLSEALYTGKAIGLSYGPAGLRHSLGHIISVWGADLDADGNVVAIYVTDSDDKKLTIGDERVGLKRYKVSSDDENRLRLTAYEETHNTGGQIRGIYTLDTGKQAWADYFDKTEQTGTDQAEQLEHHHHHH
B13: PRT-206 (enzyme)
chain: MEVVEVWPYGQNPNGKTEILSQTEDSESLQRLRDIEDFQAEKKKENVVYTKWLDGVTVKDHDFRKIVDGNIAYYATPLLNGRGFYDINKDFNRDSDKCAAAVAANMFHYWLDINRDNVDRFLRQNPEKHGIIELPDGQLKLSDFLNTYESDDGYRDKSKLFDFISNNFNGPVWTDKLLDNYINGYGYNYKYGRTIEDPTKNTSKINFFKEVFNEKILTDNHSIRDQNEFSDLLSEALYTGKAIGLSYGPAGLRHSLGHIISVWGADLDADGNVVAIYVTDSDDKKLTIGDERVGLKRYKISYDDEGRARLTAYEEKDNTGGQIRGLYTLDTGKQAWADYFDKTEQTGTDQAEQLEHHHHHH

Target: pooled human IgG (human)
Experiment: cell-based or functional assay
Also: test concentration or dose not given here.

Row | Binder | Enzyme Activity Endpoint Assay (purified): Fab′2 [ng/µL] | Enzyme Activity Endpoint Assay (purified): Fc [ng/µL] | Enzyme Activity Endpoint Assay (purified): IgG [ng/µL] | Enzyme Activity Endpoint Assay (purified): scIgG [ng/µL]
1 | B1 | 0 | 12 | 301 | 0
2 | B2 | 0 | 30 | 829 | 15
3 | B3 | 152 | 498 | 707 | 504
4 | B4 | 0 | 179 | 1800 | 121
5 | B5 | 621 | 0 | 2320 | 0
6 | B6 | 95 | 473 | 797 | 544
7 | B7 | 0 | 0 | 2510 | 0
8 | B8 | 0 | 0 | 2720 | 0
9 | B9 | 25 | 402 | 1130 | 553
10 | B10 | 0 | 0 | 2130 | 0
11 | B11 | 0 | 0 | 2260 | 0
12 | B12 | 127 | 216 | 1090 | 278
13 | B13 | 570 | 0 | 2130 | 0
